According to US20220281980A1 (Bristol-Myers Squibb, published 2022):
Changes are numbered by the printed parent chain.

Tests used:
[1] = target: T1, recombinant soluble human MICA*004 antigen (human, UniProt Q29983 24-307); assay: SPR (Biacore T200, 37 C), antibody captured on anti-human Fc, antigen 500 and 50 nM
T1 construct: also called huIMICA-his allele *004
T1 chain: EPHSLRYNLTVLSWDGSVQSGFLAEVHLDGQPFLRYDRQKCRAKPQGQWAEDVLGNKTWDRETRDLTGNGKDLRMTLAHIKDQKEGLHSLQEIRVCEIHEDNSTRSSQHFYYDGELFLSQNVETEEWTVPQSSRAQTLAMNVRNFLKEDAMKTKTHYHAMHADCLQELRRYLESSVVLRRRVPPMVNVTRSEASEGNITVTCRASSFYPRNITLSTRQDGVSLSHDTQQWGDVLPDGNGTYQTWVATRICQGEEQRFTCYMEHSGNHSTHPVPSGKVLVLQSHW
Procedure: (§1) Anti-MICA/B antibodies were captured to α-human Fc surfaces. MICA allele antigens were injected at high and low nanomolar concentrations (500 nM and 50 nM, except indicated otherwise). The results for antibodies MICA.36 and MICA.38 (MICA.2 with a Ser inserted between residues 95 and 96 in the light chain) are shown in Table 2 below.

[2] = target: T2, recombinant soluble human MICA*008 antigen (human, UniProt Q29983 24-307); assay: as above
T2 construct: also called huIMICA-his allele *008; recombinant soluble MICA (allele 8)
T2 chain: T1 chain with V122L, S175G, R181T, T213I, S215T, T216W, Q251R
Procedure: as §1

[3] = target: T3, recombinant soluble human MICA*009 antigen (human, UniProt Q29983 24-307); assay: as above
T3 construct: also called huIMICA-his allele *009
T3 chain: T1 chain with V122L, R181T, S215T, T216W
Procedure: as §1

[4] = target: T4, recombinant soluble human MICA*002 antigen (human, UniProt Q29983 24-307); assay: as above
T4 construct: also called huIMICA-his allele *002
T4 chain: T1 chain with W14G, Y36C, V122L, V129M, E173K, S175G, R181T, S206G, R210W, T216W
Procedure: as §1

[5] = target: T2, recombinant soluble human MICA*008 …; assay: BLI (Octet) sandwich binning on soluble MICA allele 8, row antibody captured; competitor (second antibody): MICA.2
Procedure: (§2) The binning experiments were performed on an Octet HTX instrument at 25° C. in HEPES buffered saline (10 mM HEPES pH 7.4, 150 mM NaCl, 0.05% v/v surfactant P20, and 1 mg/mL BSA). Anti-MICA/B antibodies and NKG2D-mFc were captured on anti-Fc tips and remaining capture sites were blocked with an excess of negative control IgG. Recombinant soluble MICA (allele 8) was bound and subsequent binding (“sandwiching”) of anti-MICA/B antibodies was tested.

[6] = target: T2, recombinant soluble human MICA*008 …; assay: BLI (Octet) sandwich binning on soluble MICA allele 8, row antibody captured; competitor (second antibody): MICA.39
Procedure: as §2

[7] = target: T2, recombinant soluble human MICA*008 …; assay: BLI (Octet) sandwich binning on soluble MICA allele 8, row antibody captured; competitor (second antibody): MICA.40
Procedure: as §2

[8] = target: T2, recombinant soluble human MICA*008 …; assay: BLI (Octet) sandwich binning on soluble MICA allele 8, row antibody captured; competitor (second antibody): MICA.38
Procedure: as §2

[9] = target: T2, recombinant soluble human MICA*008 …; assay: BLI (Octet) sandwich binning on soluble MICA allele 8, row antibody captured; competitor (second antibody): MICA.36
Procedure: as §2

Kd [1]: 104 nM
koff [1]: 0.0426 s⁻¹
kon [1]: 410000 M⁻¹ s⁻¹
Kd [2]: 130 nM
koff [2]: 0.078 s⁻¹
kon [2]: 600000 M⁻¹ s⁻¹
Kd [3]: 126 nM
koff [3]: 0.0502 s⁻¹
kon [3]: 397000 M⁻¹ s⁻¹
Kd [4]: 123 nM
koff [4]: 0.127 s⁻¹
kon [4]: 1.03e+06 M⁻¹ s⁻¹
simultaneous binding (0 = no, 1 = yes) [5]: 0
simultaneous binding (0 = no, 1 = yes) [6]: 0
simultaneous binding (0 = no, 1 = yes) [7]: 0
simultaneous binding (0 = no, 1 = yes) [8]: 0
simultaneous binding (0 = no, 1 = yes) [9]: 1
B1: MICA.38 (antibody, V domains shown)
VH: EVQLVESGGGLVQPGGSLRLSCAASGFTFSTYSMNWVRQAPGKGLEWVSYISYRSRTIYYADSVKGRFTISRDNARNSLYLQMNSLRDEDTAVYYCARWGYGSGGFDYWGQGTLVTVSS
VL: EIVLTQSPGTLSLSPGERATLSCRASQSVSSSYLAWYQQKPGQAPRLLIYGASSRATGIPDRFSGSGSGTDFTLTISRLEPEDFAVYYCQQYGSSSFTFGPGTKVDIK
notes: MICA.2 with a Ser inserted between residues 95 and 96 in the light chain; also called MICA.38_3F5_S95k
